Laboratory results from patent publication US20230220042A1 (SHANGHAI JIAO TONG UNIVERSITY SCHOOL OF MEDICINE, published 2023).
Numbering of substitutions follows the chain as printed. Names and notes keep the numbering of the source.

T1: Biotin-FcγRIIB (human, UniProt P31994 43-217, limits assumed, biotin-labelled)
T1 construct: Bought, biotin-labelled; used at 1 µg/ml for staining and sorting; also called human FcγRIIB; CD32b
T1 sequence (looked up): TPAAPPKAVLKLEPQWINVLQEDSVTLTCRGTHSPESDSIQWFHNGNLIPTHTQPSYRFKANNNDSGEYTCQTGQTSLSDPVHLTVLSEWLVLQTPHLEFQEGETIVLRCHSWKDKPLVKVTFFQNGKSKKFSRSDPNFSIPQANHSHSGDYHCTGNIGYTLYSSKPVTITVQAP

B1: human IgG2 anti-mouse CD40 surface displayed antibody, Fc mutant L328A (antibody, name in EU numbering)
light chain (with the P2A rest): DTVLTQSPALAVSPGERVTISCRASDSVSTLMHWYQQKPGQQPKLLIYLASHLESGVPARFSGSGSGTDFTLTIDPVEADDTATYYCQQSWNDPWTFGGGTKLELKRTVAAPSVFIFPPSDEQLKSGTASVVCLLNNFYPREAKVQWKVDNALQSGNSQESVTEQDSKDSTYSLSSTLTLSKADYEKHKVYACEVTHQGLSSPVTKSFNRGECGSGATNFSLLKQAGDVEENPG
heavy chain: EVQLVESDGGLVQPGRSLKLPCAASGFTFSDYYMAWVRQAPTKGLEWVASISYDGSSTYYRDSVKGRFTISRDNAKSTLYLQMDSLRSEDTATYYCGRHSSYFDYWGQGVMVTVSSASTKGPSVFPLAPCSRSTSESTAALGCLVKDYFPEPVTVSWNSGALTSGVHTFPAVLQSSGLYSLSSVVTVPSSNFGTQTYTCNVDHKPSNTKVDKTVERKCCVECPPCPAPPVAGPSVFLFPPKPKDTLMISRTPEVTCVVVDVSHEDPEVQFNWYVDGVEVHNAKTKPREEQFNSTFRVVSVLTVVHQDWLNGKEYKCKVSNKGAPAPIEKTISKTKGQPREPQVYTLPPSREEMTKNQVSLTCLVKGFYPSDIAVEWESNGQPENNYKTTPPMLDSDGSFFLYSKLTVDKSRWQQGNVFSCSVMHEALHNHYTQKSLSLSPGKLEPPPSTVSNMATVAVLVVLGAAIVTGAVVAFVMKMRRRNTGGKGGDYALAPGSQTSDLSLPDCKVMVHDPHSLA
notes: as m1; positions are Eu numbers; copies: 2 + 2
B2: human IgG2 anti-mouse CD40 surface displayed antibody, Fc mutant L328P (antibody, name in EU numbering)
light chain (with the P2A rest): B1 light chain (with the P2A rest)
heavy chain: B1 heavy chain with A323P
notes: as for B1
B3: human IgG2 anti-mouse CD40 surface displayed antibody, Fc mutant L328W (antibody, name in EU numbering)
light chain (with the P2A rest): B1 light chain (with the P2A rest)
heavy chain: B1 heavy chain with A323W
notes: as for B1
B4: human IgG2 anti-mouse CD40 surface displayed antibody, Fc mutant P238Q/S267E (antibody, name in EU numbering)
light chain (with the P2A rest): B1 light chain (with the P2A rest)
heavy chain: B1 heavy chain with P233Q, S262E, A323L
notes: as for B1
B5: human IgG2 anti-mouse CD40 surface displayed antibody, Fc mutant P271A (antibody, name in EU numbering)
light chain (with the P2A rest): B1 light chain (with the P2A rest)
heavy chain: B1 heavy chain with P266A, A323L
notes: as for B1
B6: human IgG2 anti-mouse CD40 surface displayed antibody, Fc mutant P271G/I332L (antibody, name in EU numbering)
light chain (with the P2A rest): B1 light chain (with the P2A rest)
heavy chain: B1 heavy chain with P266G, A323L, I327L
notes: as for B1
B7: human IgG2 anti-mouse CD40 surface displayed antibody, Fc mutant P271V (antibody, name in EU numbering)
light chain (with the P2A rest): B1 light chain (with the P2A rest)
heavy chain: B1 heavy chain with P266V, A323L
notes: as for B1
B8: human IgG2 anti-mouse CD40 surface displayed antibody, Fc mutant S267W (antibody, name in EU numbering)
light chain (with the P2A rest): B1 light chain (with the P2A rest)
heavy chain: B1 heavy chain with S262W, A323L
notes: as for B1

Key:
Biotin-FcγRIIB [1] = target: T1, Biotin-FcγRIIB; assay: magnetic sorting on biotin-FcγRIIB with unlabelled activating FcγRs, NGS; LibraryMix #4
Protocol: (§1) 3T3 cells were collected by trypsin digestion, and a single cell suspension was prepared. […] The cells were incubated for 15 minutes on ice and then washed twice with MACS buffer and re-suspended in 100 μl MACS buffer. Twenty-five μl anti-Biotin magnetic beads were added, and the cells were incubated for 15 minutes on ice and then washed once with MACS buffer and re-suspended to 500 μl, and added to the LS column put in the magnetic field. The effluent was collected, washed with 3 mL of MACS buffer and collected; The LS column was then removed out of the magnetic field, and 5 mL of MACS buffer was used to rapidly elute the remaining cells from the sorting column to collect positive cells, which are the high I/A ratio cells.
(§2) The high-FcγRIIB-affinity cells obtained from the above flow cytometry sorting are further sorted by magnetic-activated sorting. The cells are incubated with the mixture of Biotin-labeled FcγRIIB and non-labeled activating FcγRs, and then the labeled cells are sorted by anti-Biotin magnetic beads. The enrichment ratios after sorting relative to before sorting are analyzed by NGS.

Biotin-FcγRIIB [2] = target: T1, Biotin-FcγRIIB; assay: FACS sorting of displayed Fc library on biotin-FcγRIIB, NGS
Biotin-FcγRIIB [3] = target: T1, Biotin-FcγRIIB; assay: magnetic sorting on biotin-FcγRIIB with unlabelled activating FcγRs, NGS; Library2
Protocol: as §1, §2

Enrichment factor (percentage after sorting/percentage before sorting) (Biotin-FcγRIIB [1])	Increased factor (mutation enrichment factor/wild-type enrichment factor) (Biotin-FcγRIIB [1])	Percentage after sorting/unbinding percentage (Biotin-FcγRIIB [1])	Percentage before sorting/unbinding percentage (Biotin-FcγRIIB [1])	Increased factor b Site 1 (point mutation/wild-type) (Biotin-FcγRIIB [2])	Enrichment factor (percentage after sorting/percentage before sorting) (Biotin-FcγRIIB [3])	Increased factor (mutation enrichment factor/wild-type enrichment factor) (Biotin-FcγRIIB [3])	Percentage after sorting/unbinding percentage (Biotin-FcγRIIB [3])	Percentage before sorting/unbinding percentage (Biotin-FcγRIIB [3])	Increased factor b Site 2 (point mutation/wild-type) (Biotin-FcγRIIB [2])	Binder
3.21	3.41									B1
2.16	2.3	29.6	13.7							B2
4.26	4.53									B3
3.7	3.93	4.36	1.18							B4
				0.1	2.77	3.33	71.2	25.7		B5
2.82	3	16	5.66							B6
					3.52	4.24	1090	311	0.7	B7
					1.86	2.25	52.5	28.2		B8
